Assay results: article PMC8373891

T1: IFNAR1/IFNAR2 receptor (human (endogenous in HEK293)) (UniProt P17181)
T1 sequence 1: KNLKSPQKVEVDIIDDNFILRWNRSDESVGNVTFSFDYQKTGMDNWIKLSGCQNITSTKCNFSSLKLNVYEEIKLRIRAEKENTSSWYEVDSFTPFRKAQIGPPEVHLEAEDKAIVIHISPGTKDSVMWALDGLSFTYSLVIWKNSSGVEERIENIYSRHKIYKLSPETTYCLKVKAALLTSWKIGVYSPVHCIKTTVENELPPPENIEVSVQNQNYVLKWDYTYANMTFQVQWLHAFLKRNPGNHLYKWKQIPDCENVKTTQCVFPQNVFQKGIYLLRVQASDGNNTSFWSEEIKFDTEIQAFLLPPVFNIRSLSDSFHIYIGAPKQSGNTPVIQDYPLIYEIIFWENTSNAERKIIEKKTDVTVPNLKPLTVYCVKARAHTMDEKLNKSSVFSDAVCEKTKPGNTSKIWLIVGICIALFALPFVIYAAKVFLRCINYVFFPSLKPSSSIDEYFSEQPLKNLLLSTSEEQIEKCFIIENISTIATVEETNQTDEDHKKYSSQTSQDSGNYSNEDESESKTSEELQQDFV
T1 sequence 2: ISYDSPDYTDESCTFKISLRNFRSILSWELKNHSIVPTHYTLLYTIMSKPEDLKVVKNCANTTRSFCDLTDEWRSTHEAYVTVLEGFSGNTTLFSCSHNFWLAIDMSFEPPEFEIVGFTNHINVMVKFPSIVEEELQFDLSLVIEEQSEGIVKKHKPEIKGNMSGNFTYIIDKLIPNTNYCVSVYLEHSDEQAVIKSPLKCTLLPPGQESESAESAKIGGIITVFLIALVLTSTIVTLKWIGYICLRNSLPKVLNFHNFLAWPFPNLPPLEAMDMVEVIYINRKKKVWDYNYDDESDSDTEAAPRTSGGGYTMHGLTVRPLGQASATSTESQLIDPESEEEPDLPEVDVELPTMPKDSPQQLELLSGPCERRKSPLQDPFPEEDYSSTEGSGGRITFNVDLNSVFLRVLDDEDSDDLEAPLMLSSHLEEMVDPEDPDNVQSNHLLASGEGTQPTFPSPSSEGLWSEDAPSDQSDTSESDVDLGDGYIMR


Molecular target: T1, IFNAR1/IFNAR2 receptor (human (endogenous in HEK293))

Row | EC50 of ISG54-driven secreted embryonic alkaline phosphatase in the HEK293 (HEK-BLUE IFN-αβ) reporter cell line, dose response, 24 h [nM] | Binder
1 | 3.3 | IFNα-7 (ligand) CDLPQTHSLRNRRALILLAQMGRISPFSCLKDRHEFRFPEEEFDGHQFQKTQAISVLHEMIQQTFNLFSTEDSSAAWEQSLLEKFSTELYQQLNDLEACVIQEVGVEETPLMNEDFILAVRKYFQRITLYLMEKKYSPCAWEVVRAEIMRSFSFSTNLKKGLRRKD
2 | 0.3 | IFNα-10 (ligand) CDLPQTHSLGNRRALILLGQMGRISPFSCLKDRHDFRIPQEEFDGNQFQKAQAISVLHEMIQQTFNLFSTEDSSAAWEQSLLEKFSTELYQQLNDLEACVIQEVGVEETPLMNEDSILAVRKYFQRITLYLIERKYSPCAWEVVRAEIMRSLSFSTNLQKRLRRKD
